Laboratory results: article PMC8410769, “A CDK-regulated chromatin segregase promoting chromosome replication” (Nature Communications, 2021)

Biological target: the molecule itself
Assay: SEC; Superose 6 (3.2/300) in 150 mM KCl, 25 mM Tris-HCl pH 7.2, 5% glycerol, 0.05% NP-40, 1 mM EDTA, 4 mM MgCl2; purified Yta7 and mutants

B1: Yta7 ATP-binding mutant (K460A, Walker A), 3xFLAG-tagged (enzyme, S. cerevisiae, UniProt P40340 1-1379, looked up)
chain: MARNLRNRRGSDVEDASNAKVGYETQIKDENGIIHTTTRSLRKINYAEIEKVFDFLEDDQVMDKDETPVDVTSDEHHNNNQKGDDEDDDVDLVSPHENARTNEELTNERNLRKRKAHDPEEDDESFHEEDVDDDEEEEEADEFEDEYLDEDSKDNNRRRRAADRKFVVPDPDDDEEYDEDDEEGDRISHSASSKRLKRANSRRTRSSRHPETPPPVRRALRSRTRHSRTSNEENDDENDNSRNEALTLADEIRELQEDSPIREKRFLRERTKPVNYKLPPPLTASNAEEFIDKNNNALSFHNPSPARRGRGGWNASQNSGPTRRLFPTGGPFGGNDVTTIFGKNTNFYNQVPSAFSDNNNNKLILDSDSSDDEILPLGVTPKTKKENTQKKKKKKPEIADLDPLGVDMNVNFDDIGGLDNYIDQLKEMVALPLLYPELYQNFNITPPRGVLFHGPPGTGATLMARALAASCSSDERKITFFMRKGADILSKWVGEAERQLRLLFEEAKKHQPSIIFFDEIDGLAPVRSSKQEQIHASIVSTLLALMDGMDNRGQVIVIGATNRPDAVDPALRRPGRFDREFYFPLPDVKARFKILQIQTRKWSSPLSTNFIDKLAFLTKGYGGADLRSLCTEAALISIQRSFPQIYRSNDKLLVDPSKIKVKVSDFMLALKKIVPSSARSTGSSPQPLPELIKPLLADQLNNLKNKLDYMLNIKDTTFQRNTSLLQNFIDYEEYSGEEEEHDKYGGNEDTSSFRSYEFFESMAESQICKPRLLINGPKGNGQQYVGAAILNYLEEFNVQNLDLASLVSESSRTIEAAVVQSFMEAKKRQPSVVFIPNLDIWINTIPENVILVLSGLFRSLQSNEKILLLCLAENLDISEVKNGILSDFAFDKNIFQLHKPSKENITRYFSNLIELLKTKPSDIPMKKRRVKPLPELQKVTSNAAPTNFDENGEPLSEKVVLRRKLKSFQHQDMRLKNVLKIKLSGLMDLFKNRYKRFRKPPIDDAFLVHLFEPETSNDPNWQPAYIKDENMILEVSTGRKFFNMDLDIVEERLWNGYYSEPKQFLKDIELIYRDANTIGDRERVIKASEMFANAQMGIEEISTPDFIQECKATRQRDLERQELFLEDEEKRAAMELEAKEQSQENILQEPDLKDNKANEFGVAAGNQLQAQLQTTINTASIVNNSEVPQPIDTNLYKKEIPAAIPSAVDKEKAVIPEDSGANEEYTTELIQATCTSEITTDDDERARKEPKENEDSLQTQVTEENFSKIDANTNNINHVKEIQSVNKPNSLHETVEKRERSPIPKEVVEPEQGKKSDKELILTPEQIKKVSACLIEHCQNFTVSQLEDVHSSVAKIIWKSKSAWDKTGTVDEIIKFLSE
notes: Yta7, Saccharomyces cerevisiae; K460A mutant of the Walker A motif within the active AAA+ domain; also called ATPase mutant; source: S. cerevisiae (GAL1-10 promoter, G1-arrested, endogenous copy eliminated), purified (anti-FLAG M2, MonoQ, SEC); not shown: 3xFLAG, C-terminal, kept
stoichiometry N: 6
